Target: SIRPg (UniProt Q9P1W8)
Experiment: SPR (BIAcore X-100); ratio of the affinity for SIRPa to that for SIRPg

UniProt Q9P1W8, sequence (Q9P1W8 29-360 limits assumed): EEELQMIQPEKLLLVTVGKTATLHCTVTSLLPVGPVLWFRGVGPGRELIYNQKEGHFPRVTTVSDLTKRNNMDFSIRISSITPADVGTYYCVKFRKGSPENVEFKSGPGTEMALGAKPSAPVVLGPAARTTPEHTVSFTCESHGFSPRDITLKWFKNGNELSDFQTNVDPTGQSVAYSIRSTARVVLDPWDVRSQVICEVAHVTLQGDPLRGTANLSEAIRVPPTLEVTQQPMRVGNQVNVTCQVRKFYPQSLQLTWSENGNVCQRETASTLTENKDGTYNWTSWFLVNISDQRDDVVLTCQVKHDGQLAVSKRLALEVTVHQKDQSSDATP

- SIRPa/SIRPg亲和力比值: < 1
B1: KWAR23 (antibody, from another filing, V domains shown)
VH: EVQLQQSGAELVKPGASVKLSCTASGFNIKDYYIHWVQQRTEQGLEWIGRIDPEDGETKYAPKFQDKATITADTSSNTAYLHLSSLTSEDTAVYYCARWGAYWGQGTLVTVSS
VL: QIVLTQSPAIMSASPGEKVTLTCSASSSVSSSYLYWYQQKPGSSPKLWIYSTSNLASGVPARFSGSGSGTSYSLTISSMEAEDAASYFCHQWSSYPRTFGAGTKLELK

— patent CN115368455A
